Experiment in all cases: SPR
The target in test [1] is Echidna IGF2 (peak 2), purified recombinant (echidna).
Test [2] deals with Human IGF2 (human).
In test [3] the target is Echidna IGF2 (peak 2), purified recombinant (echidna). The source holds these as a separate data set.
The target of test [4] is Human IGF2 (human). This is another data set of the same source.
Test [5] concerns the target Chicken IGF2 (chicken) (UniProt P33717).
Test [6] shares this target. The source holds these as a separate data set.
The target in test [7] is Echidna IGF2 (peak 2), purified recombinant (echidna). This is another data set of the same source.
In test [8] the target is Human IGF2 (human). The source holds these as a separate data set.

pKd: −log10 of the molar value. Where two headings read alike, the source gives them in different places.

Chicken IGF2 (chicken), sequence (P33717 24-91): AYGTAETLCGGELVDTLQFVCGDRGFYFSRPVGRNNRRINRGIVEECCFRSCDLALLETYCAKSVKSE
Human IGF2R domain 11 (wild type), sequence (P11717 1508-1650): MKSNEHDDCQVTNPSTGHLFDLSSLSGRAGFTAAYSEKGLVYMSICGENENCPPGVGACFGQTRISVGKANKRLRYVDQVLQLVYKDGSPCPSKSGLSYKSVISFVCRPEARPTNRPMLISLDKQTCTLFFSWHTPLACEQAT

Consider “Human IGF2R domain 11 (wild type) (from UniProt P11717 1508-1650) (domain or fragment)”, for which the pKd in test [1] is 7.11; with Human IGF2 (human) [2], 7.19; in test [3] it was 7.28; in the test with Human IGF2 (human) [4], 7.34. In addition, the figures for the kd1 (two state model, first step) (in test [3]; with Human IGF2 (human) [4]) were 0.106 s⁻¹ and 0.23 s⁻¹, respectively. For the same substance, the ka1 (two state model, first step) with Human IGF2 (human) [4] is 5e+06 m^-1 s^-1.

For “Opossum IGF2R domain 11 (domain or fragment)”, the pKd with Chicken IGF2 (chicken) [5] was 6.66; in test [1], 6.80; in the test with Human IGF2 (human) [2], 6.79; with Chicken IGF2 (chicken) [6] it was 6.77; in test [3], 6.87; in the test with Human IGF2 (human) [4], 6.89. Further, the ka1 (two state model, first step) with Chicken IGF2 (chicken) [6] is 1.76e+06 m^-1 s^-1. Besides, the values for the kd1 (two state model, first step) (in test [3]; with Human IGF2 (human) [4]) were 0.106 s⁻¹ and 0.108 s⁻¹, respectively.

Turning to “Echidna IGF2R domain 11 (domain or fragment)”, the pKd in the test with Chicken IGF2 (chicken) [5] was 6.39; in test [1], 6.41; in the test with Human IGF2 (human) [2], 6.48; with Chicken IGF2 (chicken) [6], 6.61; in test [3] it was 6.59; with Human IGF2 (human) [4], 6.61. For the same substance, the kd1 (two state model, first step) was determined as 0.259 s⁻¹ with Chicken IGF2 (chicken) [6], 0.138 s⁻¹ in test [3] and 0.106 s⁻¹ with Human IGF2 (human) [4].

In turn, “Human IGF2R domain 11^(E1544K, K1545S, L1547V) (clone E4) (from UniProt P11717 1508-1650) (domain or fragment)” showed a pKd in the test with Human IGF2 (human) [2] of 7.81. Also, in the test with Human IGF2 (human) [4], the pKd is 7.82; the ka1 (two state model, first step) turned out to be 2.76e+06 m^-1 s^-1; the kd1 (two state model, first step) turned out to be 0.044 s⁻¹.

Regarding “Chicken IGF2R domain 11 with echidna CD loop (domain or fragment)”, the pKd is 6.48 in test [7], 6.49 with Human IGF2 (human) [8] and 6.37 with Human IGF2 (human) [4].

The record behind these values is PMC4658703.
